Test results published in patent publication US20240400618A1.
pKd: −log10 of the molar value.

Molecular target: pxEBN4-ACE2-AAA-His (human) (UniProt Q9BYF1)

| Substance | pKd |
| --- | --- |
| UK, Alpha, pxENB9-FLS (from UniProt P0DTC2 15-1213) (ligand) | 11.94 |
| SA, Beta, pxENB9-FLS-B.1.351 (from UniProt P0DTC2 15-1213) (ligand) | 8.80 |
